Assays:
Format in all cases: in vivo, mouse
SJL/J mice [1] = experiment: T cell and Treg counts in spleen and CNS by FACS, R-EAE with IL-10 or TGFb blockade; conditions: day 44
Excerpt: On day 44 post disease induction, the rest of the mice were sacrificed and spleens and CNS were taken for cell counts and cell population analysis as described below.
4. Experimental stains (CD45, CD3, CD4, CD25, FoxP3, Nrp-1, and Helios)
9. Gating scheme for flow: Singlets (FSC-A vs. FSC-H)->Cells (SSC-A vs. FSC-A)->Live (VID stain negative cells)->CD45hi->CD3/CD4+->CD25/FoxP3+->Helios/Nrp-1

SJL/J mice [2] = experiment: PLP139-151/CFA R-EAE upon IL-10 or TGFb blockade, clinical score
Experimental: SJL/J mice were purchased from Harlan and primed with PLP139-151/CFA per the standard protocol, as described in 21.1.2 Methods, above). At disease remission the mice were split into 6 different treatment groups (n=5) as follows:
Mice were treated with Control Ig (mouse IgG2a) or C1ORF32 ECD-Fc (SEQ ID NO:42) at 100 ug/dose, each via an i.p. injection. This was followed with a second i.p. injection on the same day of either anti-IL-10 (rat IgG1), rat IgG1 (control Ab), or anti-TGFβ (mouse IgG1) at 100 ug/dose, each. All treatments were given 3×/wk for 2 wks, beginning on day +20 (onset of disease remission) and until day +31 post disease induction. All mice were followed for disease scores until day 44 post disease induction. On day 44, mice were sacrificed and analyzed for total T cell and Treg cell numbers in spleen and CNS. […]
Mice were followed for disease and scored on a 0-5 scale per standard lab protocol as follows: 0, no abnormality; 1, limp tail; 2, limp tail and hind limb weakness; 3, hind limb paralysis; 4, hind limb paralysis and forelimb weakness; and 5, moribund. Dead mice were scored with a score of 5 on the day of death only, and were not further scored on the next days.

SJL/J mice [3] = experiment: BBB breakdown and inflammation by fluorescence molecular tomography, adoptive transfer R-EAE; conditions: Day +30
Experimental: Commercially available near infrared (NIR) imaging agents were used to perform tomographic imaging (PerkinElmer Inc., Boston, Mass.). AngioSense®750 was used as a vascular imaging agent, and Cat B® 680 FAST was used to detect regions of increased lysosomal cathepsin B activity. For the in vivo imaging, mice were injected intravenously with 4 nmol of NIR fluorescent agent 24 hrs prior to imaging, and imaged following the last treatment with Control Ig or C1ORF32 ECD-Fc (SEQ ID NO: 42) (Day +30 post-PLP139-151 blast cell transfer). At the time of imaging, mice were anesthetized by administration of sodium pentobarbital (50 mg/kg) and then imaged using the FMT 2500 fluorescence molecular tomography in vivo imaging system (PerkinElmer Inc., Boston, Mass.). […] Appropriate optical filters allowed the collection of both fluorescence and excitation datasets, and the multiple source-detector fluorescence projections were normalized to the paired collection of laser excitation data. […] The collected fluorescence data was reconstructed by FMT 2500 system software (TrueQuant, PerkinElmer Inc., Boston, Mass.) which compensates for the effects of tissue heterogeneity on light scattering, allowing for the quantification of fluorescence signal within multiple organ regions. […] All data was normalized to fluorescence detected in CFA/saline-immunized healthy control mice. […]

B1: C1ORF32 ECD-Fc (SEQ ID NO:42): human-mouse fusion protein: human C1ORF32 ECD fused to mouse immunoglobulin Fc (SEQ ID NO:42) (protein)
chain: LQVTVPDKKKVAMLFQPTVLRCHFSTSSHQPAVVQWKFKSYCQDRMGESLGMSSTRAQSLSKRNLEWDPYLDCLDSRRTVRVVASKQGSTVTLGDFYRGREITIVHDADLQIGKLMWGDSGLYYCIITTPDDLEGKNEDSVELLVLGRTGLLADLLPSFAVEIMGSENLYFQGSGEPRGPTIKPCPPCKCPAPNLLGGPSVFIFPPKIKDVLMISLSPIVTCVVVDVSEDDPDVQISWFVNNVEVHTAQTQTHREDYNSTLRVVSALPIQHQDWMSGKEFKCKVNNKDLPAPIERTISKPKGSVRAPQVYVLPPPEEEMTKKQVTLTCMVTDFMPEDIYVEWTNNGKTELNYKNTEPVLDSDGSYFMYSKLRVEKKNWVERNSYSCSVVHEGLHNHHTTKSFSRTPGK
modifications: Fusion protein human C1ORF32-ECD fused to mouse IgG2a Fc
leukocytes and T cell counts in the CNS (CD45+, CD4+, CD25+/FoxP3+) (SJL/J mice [1]): pronounced decrease | beneficial effect on disease (SJL/J mice [2]; concomitant administration of anti-IL-10): abrogated the beneficial effect | beneficial effect on disease (SJL/J mice [2]; concomitant administration of anti-TGF): abrogated the beneficial effect | monocyte/macrophage activity in the brain and spinal cord (lysosomal CathepsinB activity) (SJL/J mice [3]; did not reach statistical significance): decreased monocyte/macrophage activity | vascular leakage in the brain and spinal cord (AngioSense) (SJL/J mice [3]; significantly reduced levels): decreased vascular leakage

Source: patent US20190309044A1, “POLYPEPTIDES AND USES THEREOF AS A DRUG FOR TREATMENT OF AUTOIMMUNE DISORDERS” (Compugen Ltd., priority 2017, published 2019)
